The values that follow come from article PMC8808184 (2021).

Test [1] has as its target T1, E1 domain of chicken APP (chicken, biotin (EZ-Link NHS-PEG4-Biotin, 1:1 molar ratio) where immobilised in BLI).
T1 chain: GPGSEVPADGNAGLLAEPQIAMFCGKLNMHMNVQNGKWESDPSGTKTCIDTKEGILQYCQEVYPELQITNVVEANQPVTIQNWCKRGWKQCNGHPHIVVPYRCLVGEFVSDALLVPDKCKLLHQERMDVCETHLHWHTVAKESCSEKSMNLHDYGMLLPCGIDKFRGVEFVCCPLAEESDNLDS
The test can be described thus: BLI.

The target of test [2] is T2, E1 domain of human APLP1 (human, UniProt P51693 50-212, biotin (EZ-Link NHS-PEG4-Biotin, 1:1 molar ratio) where immobilised in BLI).
T2 chain: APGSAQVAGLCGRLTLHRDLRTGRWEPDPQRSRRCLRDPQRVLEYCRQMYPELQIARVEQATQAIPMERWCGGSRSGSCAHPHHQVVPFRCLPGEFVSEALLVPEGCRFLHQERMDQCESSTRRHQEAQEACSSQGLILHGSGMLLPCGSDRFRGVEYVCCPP
Kind of test: BLI.

B1: FN1–FN3 region of chicken CNTN4, T751A and V752A (domain or fragment)
chain: GSTGSPPGPPEDVTIDEITDTTAQLSWRPGADNHSPITMYVVQARTPFSVGWQAVSTVPEVIDGKTFTATVVGLNPWVEYEFRVVAANLIGIGEPSRPSENRRTEEALPEVTPANVSGGGGSKSELVITWETVPEELQNGGGFGYVVAFRPFGTISWMQAAVASPDASRYVFRNESLPPFSPYEVKVGVYNNKGEGSFSPVTVVYSAEEEPTRAPITVLARSLSATDIEISWAPPRENQHKGRIQGYEVRCWRHDEKEENARKIRTVGNQTSAKVTNLQGNALYHLAVKAYNTAGTGPSSAMVNVTTKK
Regarding B1, in test [1], the Kd is 20.9 µM.

B2: FN1–FN3 region of CNTN3 titrated against human APLP1(E1) (domain or fragment)
chain: PPENVKVDEITDTTAQLSWKEGKDNHSPVISYSIQARTPFSVGWQTVTTVPEVIDGKTHTATVVELNPWVEYEFRVVASNKIGGGEPSLPSEKVRTEEAVPEVPPSEVNGGGGSRSELVITWDPVPEELQNGEGFGYVVAFRPLGVTTWIQTVVTSPDTPRYVFRNESIVPYSPYEVKVGVYNNKGEGPFSPVTTVFSAEEEPTVAPSQVSANSLSSSEIEVSWNTIPWKLSNGHLLGYEVRYWNGGGKEESSSKMKVAGNETSARLRGLKSNLAYYTAVRAYNSAGAGPFSATVNVTTKKT
As for B2, the Kd in test [2] is 9.1 µM.

B3: FN1–FN3 region of CNTN5 titrated against human APLP1(E1) and human APLP2(E1) (domain or fragment)
chain: PPGIVIVEEITESTATLSWSPAADNHSPISSYNLQARSPFSLGWQTVKTVPEIITGDMESAMAVDLNPWVEYEFRVVATNPIGTGDPSTPSRMIRTNEAVPKTAPTNVSGRSGRRHELVIAWEPVSEEFQNGEGFGYIVAFRPNGTRGWKEKMVTSSEASKFIYRDESVPPLTPFEVKVGVYNNKGDGPFSQIVVICSAEGEPSAAPTDVKATSVSVSEILVAWKHIKESLGRPQGFEVGYWKDMEQEDTAETVKTRGNESFVILTGLEGNTLYHFTVRAYNGAGYGPPSSEVSATTKKS
B3: in test [2], the Kd is 10.9 µM.
